The target in the test “SARS-CoV S1蛋白(Sino …)” is SARS-CoV S1蛋白(Sino Biological，货号:40150-V08B1) (SARS-CoV, UniProt P59594 14-667). In words: ELISA, S1 protein coated at 2 μg/mL, antibody titrated from 10 μg/mL. Background: An ELISA detects its analyte on a solid surface through an enzyme-linked reagent.
The test “SARS-CoV-2 S1蛋白(Sino …)” concerns the target T1, SARS-CoV-2 S1蛋白(Sino Biological，货号:40591-V08H) (SARS-CoV-2, UniProt P0DTC2 16-685).
T1 construct: domain: S1
Nature of the test: ELISA, S1 protein coated at 2 μg/mL, antibody at 1 μg/mL.

For test [1], the target named is T2, SARS-CoV-2 Wuhan-Hu-1 S蛋白(Sino Biological，货号:40589-V08B1) (SARS-CoV-2 Wuhan-Hu-1, UniProt P0DTC2 14-1213).
T2 construct: extracellular domain
Nature of the test: ELISA screen, S protein coated at 2 μg/mL, antibody at 1 μg/mL.

For test [2], the target named is SARS-CoV-2 Gamma突变株S蛋白 (假病毒, Genebank:MZ427312.1) (SARS-CoV-2 Gamma突变株). Nature of the test: cell-based or functional assay.
The test “SARS-CoV-2 S2蛋白(Sino …)” concerns the target T3, SARS-CoV-2 S2蛋白(Sino Biological，货号:40590-V08B) (SARS-CoV-2, UniProt P0DTC2 686-1213).
T3 construct: domain: S2
Nature of the test: ELISA, S2 protein coated at 2 μg/mL, antibody at 1 μg/mL, anti-human IgG-HRP.

B1: 全人源广谱抗sarbecovirus和/或新冠突变株的抗体(VSCM8-83) (antibody, V domains shown)
VH: EVQLVEFGGGLVQPGGSLRLSCAASGFAVSSNYMSWVRQAPGKGLEWVSVIYGDGTTYYGDSVKGRFTISRHNSKNTLYLQMNSLRTEDTAVYYCARIVSEAFDLWGQGTMVTVSS
VL: DIQMTQSPSTLSASVGDRVTITCRASQSIGRWLAWYQQKPGKAPKLLIYMASILESGVPSRFSGSGSATEFTLTISSLQPDDFATYYCQQYNGYSQYTFGQGTKLEIKR
As to B1, the binding result with SARS-CoV S1蛋白(Sino …) is “binds”; in the test with SARS-CoV-2 S1蛋白(Sino …), “binds”; in test [1] it was “binds”; in the test with SARS-CoV-2 S2蛋白(Sino …) it was “no binding (tested: 1μg/mL)”. In test [2], the “假病毒中和 IC50” value turned out to be 0.0207 µg/mL.

Values taken from patent CN118638216A (CHENZHOU NO 1 PEOPLES HOSPITAL, dated 2024).
